Article doi:10.1101/2024.12.30.630826
Substitutions are numbered along the chain they refer to.

B1: RGen-aptamer-9 (structured_RNA)
RNA: UCCAGCACUCCACGCAUAACGAAGGGGGUUUGUUUGUUGGGGGGGGGGGAGGGGGAGUUAUGCGUGCUACCGUGAA
B2: SELEX-derived wild-type aptamer (structured_RNA)
RNA: B1 RNA with A22G, A23C, G26U, U29G, U31G, U33G, G40U, G44A

Biological target: IGFBP3 (insulin-like growth factor-binding protein 3) (UniProt P17936 28-291)
Test: SPR

IGFBP3 (insulin-like growth factor-binding protein 3), sequence (P17936 28-291): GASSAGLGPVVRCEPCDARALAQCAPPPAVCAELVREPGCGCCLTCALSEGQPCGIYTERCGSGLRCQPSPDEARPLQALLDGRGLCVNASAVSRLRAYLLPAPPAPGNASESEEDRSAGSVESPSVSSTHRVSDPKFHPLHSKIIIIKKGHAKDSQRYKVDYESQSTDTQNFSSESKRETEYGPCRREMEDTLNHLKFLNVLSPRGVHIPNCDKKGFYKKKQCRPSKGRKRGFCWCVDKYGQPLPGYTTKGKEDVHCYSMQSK

Row | Binder | Kd
1 | B1 | 6.06 nM
2 | B2 | 11.6 nM
